In article PMC3788124, “Crystal Structure of the Human Short Coiled Coil Protein and Insights into SCOC-FEZ1 Complex Formation” (PLoS ONE, 2013):

B1: Strep-tagged SCOC(78-159) N125L/N132V (domain or fragment)
chain: not shown
notes: human SCOC, SwissProt entry Q9UIL1 isoform 1, residues 78-159, with N125L and N132V; linker between SCOC and the Strep-tag, as in the wild-type construct; Tetramer by SEC-MALLS and native MS; also called tetrameric core mutant; double core mutant N125L/N132V; source: E. coli BL21 (DE3), purified (StrepTrap, Superdex 75); also co-expressed with FEZ1(227-290) in E. coli
B2: Strep-tagged SCOC(78-159) R99E (domain or fragment)
chain: not shown
notes: human SCOC, SwissProt entry Q9UIL1 isoform 1, residues 78-159, with R99E; linker between SCOC and the Strep-tag, as in the wild-type construct; also called R99E surface mutant; source: E. coli BL21 (DE3), purified (StrepTrap, Superdex 75); also co-expressed with FEZ1(227-290) in E. coli
B3: Strep-tagged SCOC(78-159) E93V/K97L (domain or fragment, human)
chain: MAMMNADMDAVDAENQVVLEELTRLINQVLELQHTLEDLSARVDAVKEENLKLKSENQVLGQYIENLMSASSVFQTTDTKSKRKLVPRGS
notes: human SCOC, SwissProt entry Q9UIL1 isoform 1, residues 78-159, with E93V and K97L; linker between SCOC and the Strep-tag, as in the wild-type construct; Trimer by SEC-MALLS and native MS; also called trimeric SCOC mutant; double core mutant E93V/K97L; source: E. coli BL21 (DE3), purified (StrepTrap, Superdex 75); also co-expressed with FEZ1(227-290) in E. coli
B4: Strep-tagged SCOC(78-159) R117E (domain or fragment)
chain: not shown
notes: human SCOC, SwissProt entry Q9UIL1 isoform 1, residues 78-159, with R117E; linker between SCOC and the Strep-tag, as in the wild-type construct; also called R117E surface mutant; source: E. coli BL21 (DE3), purified (StrepTrap, Superdex 75); also co-expressed with FEZ1(227-290) in E. coli
B5: C-terminal Strep-tagged SCOC(78-159), wild type (domain or fragment)
chain: not shown
notes: human short coiled coil protein (SCOC), SwissProt entry Q9UIL1 isoform 1, residues 78-159; underlined stretch of the printed construct; linker between SCOC and the Strep-tag in the printed construct; Dimer by SEC-MALLS and native MS; also called short coiled coil protein; Strep-SCOC(78-159); source: E. coli BL21 (DE3), purified (StrepTrap, Superdex 75); also co-expressed with FEZ1(227-290) in E. …
B6: Selenomethionine-labelled Strep-tagged L105M SCOC(78-159) (domain or fragment)
chain: not shown
modifications: selenomethionine-labelled
notes: human SCOC, SwissProt entry Q9UIL1 isoform 1, residues 78-159, with L105M; linker between SCOC and the Strep-tag, as in the wild-type construct; Crystallised by in situ proteolysis with subtilisin (1:2000 w/w), so the chain in the crystal may be shorter; the final model comprises residues 86-147 and the Strep-tag is not visible in the electron density; also called L105M SCOC mutant; SCOC_(78-159) …

Biological target: the molecule itself
Assay: SEC-MALLS; SCOC constructs alone; 500 µL of 1.5 mg/ml on Superdex 200 10/300 GL; three measurements for each protein

Going from B1 to B2, the “stoichiometry N” value falls from 4 to 2.

Compared with B3, B4 is lower in “stoichiometry N” value: 3 for the first, 2 for the second.

B5 was tested, and the “stoichiometry N” value was 2.

Biological target: the molecule itself
Assay: crystal structure; selenomethionine-labelled L105M SCOC(78-159), 3 mg/ml, with subtilisin 1:2000 (w/w) for in situ proteolysis; hanging drops, 20 °C, 100 mM sodium acetate pH 4.6, 0.7 M 1,6-hexanediol, 10 mM CoCl2

B6: binds.
